Laboratory results as given in article PMC6336796 (Nature Communications, 2019).

Target: T1, Flag-CENP-E (UniProt Q02224 1-2701)
T1 construct: CENP-E; Primers are in Supplementary Data 3; also called Flag-CENP-E protein; source: HEK293T, transfected, mitotic cells
Experiment: pull-down; Flag-CENP-E purified from mitotic HEK293T lysate and eluted with 3x Flag peptide, incubated with Myc-GFP or Myc-HOIP bound to anti-c-Myc affinity gel; blot with anti-Flag
Conditions: both partners purified

T1 sequence (Q02224 whole entry): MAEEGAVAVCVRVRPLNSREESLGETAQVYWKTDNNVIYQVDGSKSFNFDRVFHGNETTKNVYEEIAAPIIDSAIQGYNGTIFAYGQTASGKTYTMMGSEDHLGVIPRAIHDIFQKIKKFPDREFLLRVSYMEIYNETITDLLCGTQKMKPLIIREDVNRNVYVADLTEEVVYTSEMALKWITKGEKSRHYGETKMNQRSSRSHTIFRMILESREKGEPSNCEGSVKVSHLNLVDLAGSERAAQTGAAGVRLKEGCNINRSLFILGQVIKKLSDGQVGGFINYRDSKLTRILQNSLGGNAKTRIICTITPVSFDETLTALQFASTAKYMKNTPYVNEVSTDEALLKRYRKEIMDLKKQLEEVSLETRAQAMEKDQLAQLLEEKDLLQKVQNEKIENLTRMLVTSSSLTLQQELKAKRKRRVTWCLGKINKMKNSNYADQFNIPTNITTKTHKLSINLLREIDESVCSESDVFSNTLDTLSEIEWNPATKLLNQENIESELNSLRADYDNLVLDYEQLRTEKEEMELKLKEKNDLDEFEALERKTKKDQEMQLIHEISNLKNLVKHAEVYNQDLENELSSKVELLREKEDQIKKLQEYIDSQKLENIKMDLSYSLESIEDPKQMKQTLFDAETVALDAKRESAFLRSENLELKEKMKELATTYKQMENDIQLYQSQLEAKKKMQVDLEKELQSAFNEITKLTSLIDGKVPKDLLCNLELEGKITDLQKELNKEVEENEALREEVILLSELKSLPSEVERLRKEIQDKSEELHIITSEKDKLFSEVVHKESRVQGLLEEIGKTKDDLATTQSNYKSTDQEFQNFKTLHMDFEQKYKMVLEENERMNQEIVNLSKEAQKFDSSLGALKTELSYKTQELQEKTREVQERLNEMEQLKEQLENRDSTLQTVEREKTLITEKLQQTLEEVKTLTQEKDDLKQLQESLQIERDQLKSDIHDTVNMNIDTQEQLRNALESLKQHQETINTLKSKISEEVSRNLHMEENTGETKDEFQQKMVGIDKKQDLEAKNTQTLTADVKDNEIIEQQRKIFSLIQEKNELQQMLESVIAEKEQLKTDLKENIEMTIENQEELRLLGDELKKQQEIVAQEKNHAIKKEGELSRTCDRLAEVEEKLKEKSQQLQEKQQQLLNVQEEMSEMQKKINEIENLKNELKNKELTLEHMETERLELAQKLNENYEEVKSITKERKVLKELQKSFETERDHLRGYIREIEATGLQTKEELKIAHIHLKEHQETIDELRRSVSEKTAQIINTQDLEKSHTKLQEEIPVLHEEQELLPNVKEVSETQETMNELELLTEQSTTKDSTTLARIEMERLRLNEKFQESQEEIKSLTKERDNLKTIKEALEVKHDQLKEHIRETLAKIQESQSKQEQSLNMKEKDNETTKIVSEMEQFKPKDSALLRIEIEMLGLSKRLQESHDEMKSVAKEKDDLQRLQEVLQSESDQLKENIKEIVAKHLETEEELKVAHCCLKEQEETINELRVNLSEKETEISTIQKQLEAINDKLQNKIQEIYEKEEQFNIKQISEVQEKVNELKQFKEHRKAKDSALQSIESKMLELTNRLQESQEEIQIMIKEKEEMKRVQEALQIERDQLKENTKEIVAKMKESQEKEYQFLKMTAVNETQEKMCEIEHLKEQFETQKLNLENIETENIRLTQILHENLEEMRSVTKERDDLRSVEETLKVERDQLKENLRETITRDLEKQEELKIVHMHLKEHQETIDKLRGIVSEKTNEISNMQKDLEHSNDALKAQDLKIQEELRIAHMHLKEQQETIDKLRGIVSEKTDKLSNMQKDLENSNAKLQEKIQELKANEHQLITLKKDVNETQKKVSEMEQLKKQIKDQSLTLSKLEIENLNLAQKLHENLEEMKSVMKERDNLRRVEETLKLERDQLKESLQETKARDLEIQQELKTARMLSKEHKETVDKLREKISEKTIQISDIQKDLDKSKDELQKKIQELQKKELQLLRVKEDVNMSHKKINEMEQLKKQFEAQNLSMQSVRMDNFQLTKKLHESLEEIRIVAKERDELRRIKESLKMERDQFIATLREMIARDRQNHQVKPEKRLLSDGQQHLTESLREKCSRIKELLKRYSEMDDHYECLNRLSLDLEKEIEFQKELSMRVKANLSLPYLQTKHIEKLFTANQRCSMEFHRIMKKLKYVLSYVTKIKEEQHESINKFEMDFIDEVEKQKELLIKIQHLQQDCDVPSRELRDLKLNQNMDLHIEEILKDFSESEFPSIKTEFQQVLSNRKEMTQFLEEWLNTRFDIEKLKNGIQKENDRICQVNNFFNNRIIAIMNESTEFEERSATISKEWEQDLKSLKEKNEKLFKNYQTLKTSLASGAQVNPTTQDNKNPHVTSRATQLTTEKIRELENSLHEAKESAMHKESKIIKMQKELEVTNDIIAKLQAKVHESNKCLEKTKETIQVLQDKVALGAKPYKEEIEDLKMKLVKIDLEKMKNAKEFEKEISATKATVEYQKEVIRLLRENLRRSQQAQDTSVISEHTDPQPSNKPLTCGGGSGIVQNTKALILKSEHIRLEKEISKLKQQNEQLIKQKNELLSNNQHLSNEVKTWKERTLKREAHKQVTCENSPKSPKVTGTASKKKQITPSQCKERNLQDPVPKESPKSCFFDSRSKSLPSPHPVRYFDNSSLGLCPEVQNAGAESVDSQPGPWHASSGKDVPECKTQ

binding result: binds
B1: Myc-HOIP (enzyme, UniProt Q96EP0 1-1072, looked up)
chain: MPGEEEERAFLVAREELASALRRDSGQAFSLEQLRPLLASSLPLAARYLQLDAARLVRCNAHGEPRNYLNTLSTALNILEKYGRNLLSPQRPRYWRGVKFNNPVFRSTVDAVQGGRDVLRLYGYTEEQPDGLSFPEGQEEPDEHQVATVTLEVLLLRTELSLLLQNTHPRQQALEQLLEDKVEDDMLQLSEFDPLLREIAPGPLTTPSVPGSTPGPCFLCGSAPGTLHCPSCKQALCPACDHLFHGHPSRAHHLRQTLPGVLQGTHLSPSLPASAQPRPQSTSLLALGDSSLSSPNPASAHLPWHCAACAMLNEPWAVLCVACDRPRGCKGLGLGTEGPQGTGGLEPDLARGRWACQSCTFENEAAAVLCSICERPRLAQPPSLVVDSRDAGICLQPLQQGDALLASAQSQVWYCIHCTFCNSSPGWVCVMCNRTSSPIPAQHAPRPYASSLEKGPPKPGPPRRLSAPLPSSCGDPEKQRQDKMREEGLQLVSMIREGEAAGACPEEIFSALQYSGTEVPLQWLRSELPYVLEMVAELAGQQDPGLGAFSCQEARRAWLDRHGNLDEAVEECVRTRRRKVQELQSLGFGPEEGSLQALFQHGGDVSRALTELQRQRLEPFRQRLWDSGPEPTPSWDGPDKQSLVRRLLAVYALPSWGRAELALSLLQETPRNYELGDVVEAVRHSQDRAFLRRLLAQECAVCGWALPHNRMQALTSCECTICPDCFRQHFTIALKEKHITDMVCPACGRPDLTDDTQLLSYFSTLDIQLRESLEPDAYALFHKKLTEGVLMRDPKFLWCAQCSFGFIYEREQLEATCPQCHQTFCVRCKRQWEEQHRGRSCEDFQNWKRMNDPEYQAQGLAMYLQENGIDCPKCKFSYALARGGCMHFHCTQCRHQFCSGCYNAFYAKNKCPEPNCRVKKSLHGHHPRDCLFYLRDWTALRLQKLLQDNNVMFNTEPPAGARAVPGGGCRVIEQKEVPNGLRDEACGKETPAGYAGLCQAHYKEYLVSLINAHSLDPATLYEVEELETATERYLHVRPQPLAGEDPPAYQARLLQKLTEEVPLGQSIPRRRK
notes: HOIP (RNF31) wild type; Construct supplied by Dr. Kazuhiro Iwai; also called RNF31; purified HOIP; source: HEK293T, transfected, mitotic cells
